Measurements: patent US20200283523A1 (WUXI BIOLOGICS IRELAND, published 2020)

Experiments:
human CD19 [1] = target: T1, human CD19 (human, UniProt P15391 20-556); experiment: flow cytometry on Ramos cells
T1 construct: whole, on cells; also called CD19 on Ramos cells; CD19 on Raji cells
T1 sequence (looked up): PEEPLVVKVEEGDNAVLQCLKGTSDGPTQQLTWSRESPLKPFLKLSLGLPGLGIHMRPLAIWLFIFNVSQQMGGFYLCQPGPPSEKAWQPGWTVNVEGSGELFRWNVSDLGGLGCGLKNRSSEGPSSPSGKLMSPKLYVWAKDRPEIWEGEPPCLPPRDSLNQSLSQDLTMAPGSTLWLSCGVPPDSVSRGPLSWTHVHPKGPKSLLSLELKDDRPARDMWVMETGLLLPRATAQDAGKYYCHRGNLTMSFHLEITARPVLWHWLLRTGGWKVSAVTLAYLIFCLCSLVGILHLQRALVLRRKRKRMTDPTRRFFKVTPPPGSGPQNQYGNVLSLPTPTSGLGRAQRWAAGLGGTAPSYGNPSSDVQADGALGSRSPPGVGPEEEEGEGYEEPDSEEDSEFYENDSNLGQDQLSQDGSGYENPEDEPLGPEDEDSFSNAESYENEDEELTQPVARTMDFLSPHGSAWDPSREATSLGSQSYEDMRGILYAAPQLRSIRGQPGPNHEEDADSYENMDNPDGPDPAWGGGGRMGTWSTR

human CD3 [2] = target: T2, human CD3 (human, UniProt P07766 23-207); experiment: flow cytometry on Jurkat cells
T2 construct: whole, on cells; On cells CD3 stands as the full CD3/TCR complex; also called CD3 on Jurkat cells
T2 sequence (P07766 23-207): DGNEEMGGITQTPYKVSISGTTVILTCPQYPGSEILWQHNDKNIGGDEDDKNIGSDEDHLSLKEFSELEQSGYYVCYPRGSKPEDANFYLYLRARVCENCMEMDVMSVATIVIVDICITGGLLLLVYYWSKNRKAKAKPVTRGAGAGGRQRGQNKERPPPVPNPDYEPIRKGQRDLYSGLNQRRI

FcRn = FcRn (UniProt P55899 24-297; P61769 21-119, limits assumed); experiment: SPR (Biacore) at pH 6.0, antibody immobilized, FcRn injected, steady state fit
Chain of FcRn (P55899 24-297 limits assumed, chain 1 of 2): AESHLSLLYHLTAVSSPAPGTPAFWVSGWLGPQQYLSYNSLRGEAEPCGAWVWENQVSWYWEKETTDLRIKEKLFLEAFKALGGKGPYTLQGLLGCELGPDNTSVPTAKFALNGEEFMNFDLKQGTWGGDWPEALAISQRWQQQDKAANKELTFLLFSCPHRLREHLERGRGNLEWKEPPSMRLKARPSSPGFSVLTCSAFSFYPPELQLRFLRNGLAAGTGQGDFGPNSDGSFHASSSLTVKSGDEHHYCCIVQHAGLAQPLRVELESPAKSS
Chain of FcRn (P61769 21-119 limits assumed, chain 2 of 2): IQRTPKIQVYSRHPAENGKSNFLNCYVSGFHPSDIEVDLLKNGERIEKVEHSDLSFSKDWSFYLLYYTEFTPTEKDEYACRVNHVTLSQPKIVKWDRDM
Procedure: Antibody binding affinity to FcRn was detected using Biacore T200 (or Biacore 8K). Each antibody was immobilized on CMS sensor chip (GE). FcRn at different concentrations in running buffer (50 mM Na2HPO4/NaH2PO4, 150 mM NaCl, 0.05% Tween20, pH 6.0) were injected over the sensor chip at a flow rate of 30 uL/min for an association phase of 60 s, followed by 60 s dissociation. The chip was then regenerated by 1×PBS (pH 7.4) after each binding cycle.
The binding of W3438-T3U4.E17-1.uIgG4.SP to FcRn was tested by SPR at pH 6.0.

human CD19 [3] = target: T1, human CD19; experiment: flow cytometry affinity on Ramos cells, bound/free versus bound plot; Ramos cells, CD19
Procedure: (§1) Binding affinity to CD3 and CD19 was determined by flow cytometry using Jurkat and Ramos cells, respectively. The cells were transferred in to 96-well U-bottom plates (BD) at a density of 5×10⁴ cells/well. Antibodies to be tested were 1:2-fold serially diluted in 1% 1×PBS/1% BSA and incubated with cells at 4° C. for 1 hr. Then, the plates were centrifuged at 1500 rpm for 4 mins and the supernatant discarded. The secondary antibody, Alexa647 conjugated goat anti-human IgG Fc (Jackson, Cat #109-605-098) or FITC conjugated goat anti-His (Bethyl, Cat # A190-113F) was added to re-suspended cells and incubated at 4° C. in the dark for 30 min. The cells were washed once and re-suspended in 100 μL 1×PBS/1% BSA. Fluorescence intensity was measured by flow cytometry (BD Canto II) and analyzed by FlowJo. Fluorescence intensity was converted to bound molecules/cell based on the quantitative beads (Quantum™ MESF Kits, Bangs Laboratories). KD was calculated by Graphpad Prism5.
(§2) The binding affinity of W3438-T3U4.E17-1.uIgG4.SP to human CD19 and CD3 was tested on Ramos and Jurkat cells by flow cytometry. The bound IgG/free IgG versus bound IgG was plotted in FIGS. 14A-14B.

human CD3 [4] = target: T2, human CD3; experiment: flow cytometry affinity on Jurkat cells, bound/free versus bound plot; Jurkat cells, CD3
Procedure: as §1, §2

FcγRI = FcγRI (UniProt P12314 16-288, limits assumed); experiment: SPR (Biacore), receptor captured on anti-his chip, antibody injected, 1:1 Langmuir fit
Chain of FcγRI (P12314 16-288 limits assumed): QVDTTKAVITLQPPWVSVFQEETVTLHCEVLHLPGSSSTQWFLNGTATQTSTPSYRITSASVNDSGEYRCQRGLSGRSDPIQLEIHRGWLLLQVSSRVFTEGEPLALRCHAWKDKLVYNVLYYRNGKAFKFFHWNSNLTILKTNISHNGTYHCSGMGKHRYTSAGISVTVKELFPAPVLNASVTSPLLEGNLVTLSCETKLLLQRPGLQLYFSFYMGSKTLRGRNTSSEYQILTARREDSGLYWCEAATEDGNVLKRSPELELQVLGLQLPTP
Procedure: Antibody binding affinity to FcγRs was detected using Biacore T200 (or Biacore 8K). Each receptor was captured on an anti-his antibody immobilized CMS sensor chip (GE). Antibodies at different concentrations were injected over the sensor chip at a flow rate of 30 uL/min for an association phase of 60 s, followed by 60 s dissociation. The chip was then regenerated by 10 mM glycine (pH 1.5) after each binding cycle.
The sensorgrams of blank surface and buffer channel were subtracted from the test sensorgrams. The experimental data was fitted by 1:1 model using Langmiur analysis (for FcγRI) or steady state model (for other receptors). A molecular weight of 150 KDa was used to calculate the molar concentration of antibodies.

C1Q = target: T3, C1Q (UniProt P02745 23-245; P02746 28-253; P02747 29-245); experiment: ELISA, antibody coated on the plate, C1q titrated (axis [C1q] nM), anti-human C1q-HRP detection
T3 construct: also called Clq
T3 sequence (P02745 23-245 limits assumed, chain 1 of 3): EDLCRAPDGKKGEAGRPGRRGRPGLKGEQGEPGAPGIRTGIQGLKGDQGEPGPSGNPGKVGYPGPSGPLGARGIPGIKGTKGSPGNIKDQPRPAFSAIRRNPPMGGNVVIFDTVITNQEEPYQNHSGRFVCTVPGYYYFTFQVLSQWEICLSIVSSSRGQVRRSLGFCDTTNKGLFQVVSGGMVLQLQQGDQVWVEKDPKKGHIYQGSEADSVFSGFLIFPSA
T3 sequence (P02746 28-253 limits assumed, chain 2 of 3): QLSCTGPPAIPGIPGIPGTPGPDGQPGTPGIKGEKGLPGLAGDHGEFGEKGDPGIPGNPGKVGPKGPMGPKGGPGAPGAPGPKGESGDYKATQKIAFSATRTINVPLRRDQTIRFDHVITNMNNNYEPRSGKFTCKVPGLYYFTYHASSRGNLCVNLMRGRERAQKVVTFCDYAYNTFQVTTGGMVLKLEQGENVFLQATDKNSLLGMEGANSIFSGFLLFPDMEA
T3 sequence (P02747 29-245 limits assumed, chain 3 of 3): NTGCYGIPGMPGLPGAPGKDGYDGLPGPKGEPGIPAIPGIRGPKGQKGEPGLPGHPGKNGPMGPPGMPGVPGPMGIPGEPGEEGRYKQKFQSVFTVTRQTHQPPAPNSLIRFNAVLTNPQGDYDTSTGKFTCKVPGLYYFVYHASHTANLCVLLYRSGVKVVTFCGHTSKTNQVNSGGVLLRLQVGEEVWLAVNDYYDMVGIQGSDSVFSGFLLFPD
Procedure: ELISA Plates (Nunc) were coated with antibody samples at 3 μg/mL overnight at 4° C. After blocking and washing, C1q was gradient diluted starting from 600 μg/mL and incubated at room temperature for 2 hr. The plates were then washed and subsequently incubated with sheep anti-human C1q Ab-HRP for 1 hr. After washing, TMB substrate was added and the interaction was stopped by 2 M HCl. The absorbance at 450 nm was read using a microplate reader (Molecular Device).
The binding activity of antibodies to C1Q was tested by ELISA.

B1: W3438-T3U4.E17-1.uIgG4.SP (bispecific antibody)
light 1: DIVMTQSPDSLAVSLGERATINCKSSQSLLNSRTRKNYLAWYQQKPGQPPKLLIYWASTRQSGVPDRFSGSGSGTDFTLTISSLQAEDVAVYYCTQSHTLRTFGGGTKVEIKPDIQNPDPAVYQLRDSKSSDKSVCLFTDFDSQTQVSQSKDSDVYITDKCVLDMRSMDFKSNSAVAWSQKSDFACANAFQNSIIPEDTFFPSPESS
heavy 1: QVQLVQSGAEVKKPGSSVKVSCKASGFAFTDYYIHWVRQAPGQGLEWMGWISPGNVNTKYNENFKGRVTITADKSTSTAYMELSSLRSEDTAVYYCARDGYSLYYFDYWGQGTLVTVLEDLKNVFPPEVAVFEPSEAEISHTQKATLVCLATGFYPDHVELSWWVNGKEVHSGVCTDPQPLKEQPALQDSRYALSSRLRVSATFWQNPRNHFRCQVQFYGLSENDEWTQDRAKPVTQIVSAEAWGRYGPPCPPCPAPEFLGGPSVFLFPPKPKDTLMISRTPEVTCVVVDVSQEDPEVQFNWYVDGVEVHNAKTKPREEQFNSTYRVVSVLTVLHQDWLNGKEYKCKVSNKGLPSSIEKTISKAKGQPREPQVYTLPPCQEEMTKNQVSLWCLVKGFYPSDIAVEWESNGQPENNYKTTPPVLDSDGSFFLYSRLTVDKSRWQEGNVFSCSVMHEALHNHYTQKSLSLSLGK
light 2: DIQLTQSPSFLSASVGDRVTITCSASSTVNYMHWYQQKPGKAPKLLIYSTSNLASGVPSRFSGSGSGTEFTLTISSLQPEDFATYYCHQWSSYPYTFGQGTKLEIKRTVAAPSVFIFPPSDEQLKSGTASVVCLLNNFYPREAKVQWKVDNALQSGNSQESVTEQDSKDSTYSLSSTLTLSKADYEKHKVYACEVTHQGLSSPVTKSFNRGEC
heavy 2: QMQLVQSGPEVKKPGTSVKVSCKASGYAFTSYNMYWVRQARGQRLEWIGYIDPYNGDTTYNQKFKGRVTITRDMSTSTAYMELSSLRSEDTAVYYCLTTAYAMDYWGQGTLVTVSSASTKGPSVFPLAPCSRSTSESTAALGCLVKDYFPEPVTVSWNSGALTSGVHTFPAVLQSSGLYSLSSVVTVPSSSLGTKTYTCNVDHKPSNTKVDKRVESKYGPPCPPCPAPEFLGGPSVFLFPPKPKDTLMISRTPEVTCVVVDVSQEDPEVQFNWYVDGVEVHNAKTKPREEQFNSTYRVVSVLTVLHQDWLNGKEYKCKVSNKGLPSSIEKTISKAKGQPREPQVCTLPPSQEEMTKNQVSLSCAVKGFYPSDIAVEWESNGQPENNYKTTPPVLDSDGSFFLVSRLTVDKSRWQEGNVFSCSVMHEALHNHYTQKSLSLSLGK
notes: Bispecific, bivalent: one anti-CD3 arm with TCR constant domains and one native anti-CD19 Fab arm, IgG4 S228P Fc with knobs-into-holes; also called WBP3438; CD3×CD19 bispecific antibody; copies: 1 + 1 + 1 + 1
With B1 the EC50 (human CD19 [1]) was 15.6 nM, the EC50 (human CD3 [2]) was 47 nM and the Kd (FcRn) was 2580 nM. For the same binder, the Kd (human CD19 [3]) was 23 nM, the Kd (human CD3 [4]) was 9 nM and the Kd (FcγRI) was 9.79 nM. B1: no binding (tested: about 1500 nM C1q) (C1Q).
